In the DeepSol protein solubility set:

test: soluble on expression in E. coli; label from the status in PepcDB or PDB records

Sequence | soluble on expression in E. coli
MVGEGEIELRNELPGGEVHAAWHLRYAGHDFFVKCDEREMLRGFTAEADQLELLSRSKTVVVPKVWAVGSDRDYSFLVMDYLSPRPLDAHNAFILGQQLARLHQWSDQPQFGLDFDNALSTTPQPNTWQRRWSTFFAEQRIGWQLELAAEKGITFGNIDAIVEHVQQRLASHQPQPSLLHGDLWSANCALGPDGPYIFDPACYWGDRECDLAMLPLHTDQPPQIYDGYQSVSPLPLDFLDRQPIYQLYTLLNRARLFGGQHLATAQKAMDRLLAVLEHHHHHH | not soluble
SLKGLKAYRLDVPPMLADRGIDRMLAFAVPLTVRFRGIKVREGTLLHGPEGWGEWSPFWDYDPVESASWLRAGIEGATRRLPVARRDRVPINVTIPVVDADRAGRMAAESACLTAKVKVADPRSDLREDCRRVAAVREAMPDGHIRVDANTAWDVDAAVRAITELDAAAEGLEYVEQPCASVAELAQVRRKVNVPVAADESVRRAEDPLAVARAGAADLLIVKAQPLGGVARALEVIDATGLPAVVSSALDTSIGIGLATYLAAALPSLDHACGLGTIRLFQGDVSASPLLPVDGYLRPRRGEVDVEVEESDTDLCPRWSQRLALTVAALVERERS | not soluble
SAAGVDGDTAAAAAAGGGVVVVFDFDRTIIEWDSDDWVITKLGASDAFRRLRPTMRWNPLMDRMMVELHAQGRSADDIRDCLKSAPLDAHVLSAITTASALGCDLRVASDANAFFIETVLEHHGVLGCFSEISTNPARVDGNGRLRISPFHDPDDSSPHGCSLCPENMCKGKIIERIQATANGKRHFIYIGDGRGDYCPSLKLGEGDYVMPKEKYPLWNLISSNKQLLKAEVHPWNNGEELEQTLLKLVNKLITPPAQPSQFEYKCDMSNPVSTEVGQALRVPH | soluble
MSLNGDNQQILREIVLNPTIHGKELESIFGLSRRQLGYRIQKINLWLEQEGYPKLERTSQGNFIVSSEIMTLFKRDVSEQQMLNGNNVIFSIETRRYYLMLMLFSKENAMSLNHFSIDLQVSKNTVIHDINHVKEQLENHGLSLKYSRKHGYEIVGDEFEVRRFFIKLIDQRLNHDITKSEVLKALNLTFEDIAYQKDKIKQVEQFLKSRFIDKSLSSLPYVLCVIRRRIQSGHVMNPLNINYQYLRDTKEYQATEIMTQHEPDLPEAEKLYLTLHLLSTSVQWTDLQESDSISNLTMAIAQMIHHFEQITFINIEDKEKLSQQLLLHLTPAFYRIKYNLTDRDELINPLQGNYQSLFHMVKQSCQSLTEYFGKSLPDNEIAYLTMLFGGSLRREGHHHHHH | soluble
MSRKRTENGSESGPATSHVPVDRFGFLKQEHANSPERFSKSKTTSSTDHDREERKVRKWRKMIGVGGSDWKHYVRRKPNVVRRRIRKGIPDCLRGLVWQLISGSRDLLLMNPGVYEQLVIYETSASELDIIRDISRTFPSHVFFQKRHGPGQRSLYNVLKAYSVYDRDVGYVQGMGFIAGLLLLYMSEEDAFWLLVALLKGAVHAPMEGLYHAGLPLVQQYLFQLESLVKELIPKLGEHFTQEMINPSMYASQWFITVFSYSFPFPLALRIWDVFLSEGVKIVFKVGLALLKYCQDELVSKVTV | not soluble
MSLGDQKPATIYAPTVRVTPNPAWPQVSWQLLVAKPSAARIIDSPRINVRPTPGELQVYHGAGWAQPATDMLEDSVVRAFEDSGKIAAVARIGAGIRSDYKLAIDVRRFESDYAGQSLPAATIELNAKLLHSSDQRVVASRTFTVARPSSSTDTAAVAAAFEQALTQVTTELVGWTLITGQQDSQTLPRALEGHHHHHH | soluble
MGSDKIHHHHHHMSIFANLFKKQADADAKVVGNVEDFVSLTRVYFQSVIAVNLGITNIRFLPDVANFKRLFKVATQGGKLGLAEKSASRKMLMQDYGISESFFKEIDTSIKKNCRTQNDVQAYLFMYQGFSSDLMMLMGNLMQWKFRMPAIFKKALRSMTEKTVHDVCTKTVWKADDVHKTAAAVRQYKERLGFSEQWMSEYVYNIVLLAKKEPKHKDEEAKAK | not soluble
MGSDKIHHHHHHMSPKTDIAEVNQESLYRIFTIPEAPDSTLGKIEKHLSENLMGFLGEHIVAREKPLQEIERDFDKSQIPEEPAFVSDHTEFLLDKLVAHSVHTASPRFIGHMTSALPYFLLPLAKLMVGLNQNLVKIETSKAFTPLERNVIGMMHHLVYQQDAPFYNRWMHSAQHSLGAFCSGGTIANMTALWVARNRLLQADGDFAGISADGLAAGLQHYGYSKLTVVVSERGHYSLSKAADVLGIGRRNLVSVATDSDNRIRIDELRKTCEKIAKEGGKVLALVGVAGTTETGHIDPLDEMATVAEEVDAHFHVDAAWGGATLLSEQHRPLLAGIERADSVTIDAHKQMYVPMGAGLVLFKNPALVKSIEYHAEYIIRQGSKDLGSHTMEGSRAGMAMMVFSAMHVIGRRGYELLINNSIDKARYFSKLISEQDDFEVITEPELCILTYRFVPIKVKTVLDKATPEQLARLTPHLNALTRYIQKRQRETGQSFVSRTKLTPAQYHHEPTVVFRVVLANPLTTNEMLQEVLCEQRKIAAKATSLRGALHTEMRELGMLI | not soluble
MGLLDMIGPVMVGPSSSHTAGACRLALLARHLLGEKPKRVEFGLHGSFAKTGKGHGTHLALAAGVLGLTPDDERLKESLSLAEREGVEVVFKEVELGDVHPNTVRMVLEGEKERLAVTGSSLGGGLVRVFDVDGFEVRITGSAPTLVIKNVDTPGVVARVARILADDEVNIAYLTVSRKKRGGEAMMSIEVDRPLSEVPLRYLEHLSYILWVRQIPPVMG | soluble
PVDFNGYWKMLSNENFEEYLRALDVNVALRKIANLLKPDKEIVQDGDHMIIRTLSTFRNYIMDFQVGKEFEEDLTGIDDRKCMTTVSWDGDKLQCVQKGEKEGRGWTQWIEGDELHLEMRAEGVTCKQVFKKVH | soluble
MSLGNSRSRVGRSFCSQFLPEEQAEIDQLFDALSSDKNSPNVSSKSFSLKALQNHVGEALPPEMVTRLYDGMRRVDLTGKAKGPSENVSQEQFTASMSHLLKGNSEEKSLMIMKMISATEGPVKAREVQKFTEDLVGSVVHVLSHRQELRGWTGKEAPGPNPRVQVLAAQLLSDMKLQDGKRLLGPQWLDYDCDRAVIEDWVFRVPHVAIFLSVVICKGFLVLCSSLDLTTLVPERQVDQGRGFESILDVLSVMYINAQLPREQRHRWRLLFSSVLHGHSFSQLCGHITHRGPCVAVLEDHDKHVFGGFASCSWEVKPQFQGDNRCFLFSICPSMAVYTHTGYNDHYMYLNHGQQTIPNGLGMGGQHNYFGLWVDVDFGKGHSRAKPTCTTYNSPQLSAQENFQFDKMEVWAVGDPSEEQLAKGNKSILDADPEAQALLEISGHSRHSEGLREVPDDEGHHHHHH | soluble
MKRFDLRPLKAGIFERLEELIEKEMQPNEVAIFMFEVGDFSNIPKSAEFIQSKGHELLNSLRFNQADWTIVVRKKA | not soluble
MSTVVSEGRNDGNNRYSPQDEVEDRLPDVVDNRLTENMRVPSFERLPSPTPRYFGSCKWFNVSKGYGFVIDDITGEDLFVHQSNLNMQGFRSLDEGERVSYYIQERSNGKGREAYAVSGEVEGQGLKGSRIHPLGRKKAVSLRCFRCGKFATHKAKSCPNVKTDAKVCYTCGSEEHVSSICPERRRKHRPEQVAAEEAEAARMAAEKSSPTTSDDDIREKNSNSSDE | not soluble
MSIMKTADRPHAMNRRQDAIFLEVFWARVRSIADEAAKLIVRTSFSTLSTEANDFTVVVTDSAGRCLTENSGSIPAFIGTLPATVQAVIAKYPHHTLRPGDVFITNDPWIGTGHLNDVCLVKPVFHLGKVVAFAATAGHVPDIGGRFRSVNAHELFEEGLQIPVIRLLDQGAPNEAILDMIRTNVRTPDQTAGDIWSQASAVELVARRLGEVLVEYALPGVDDIAEALFERGDRALRKAISALPDGQYRYAMQTDGFEQRLDLAVTVRIEGDAITCDFTGTSPQQPRAINCPLGYTTAMAVYAIKCLLVPDIPNSDGMLRAIRVEAPEHSLLNPARPAAVGGRASTGHYLPVLIFGAMHAVLPERVMAGAGSPLWSANISGTGADGLPMATVLFFNGGMGATCGKDGAAVMSWPSNISPTPVEVAERDIPLFFRYKRLRVDSGGPGQWRGGLGEEVCMVSRHDRPLSVVFLAERTREPAPGLGGGQAGVPGAVWINGVAVDVRERHLLNPGDELVMRTPGGGGFGPPGQRDPALADHDYRLGYSAAPGTARQS | not soluble
MKKFKNILFATQGLPGHSDALEQAIQLAYNNRGQLAGLIAFPAFPADLQRYQEPYEQSYLNTLMETVEACRSQHHIHKDEVPFPLMVEHSEQPAVAIIKSALNHHIDLLIKEAEPMTHSQQGFKALDMTLLRKCPCPVWLHR | not soluble
GIDPFTMLRPRLCTMKKGPSGYGFNLHSDKSKPGQFIRSVDPDSPAEASGLRAQDRIVEVNGVCMEGKQHGDVVSAIRAGGDETKLLVVDRETDEFFKKCRVIPSQEHLNGPLPVPFTNGEIQKENSREALAEAALESPRPALVRSASSDTSEELNSQDSPPKQDSTAPSSTSSSDPILDFNISLAMAKERAHQKRSSKRAPQMDWSKKNELFSNL | soluble
MSNVSSETVNLNNTSIVHMNMSNVTKLTASNYIMWSRQVHALLHGYGLTQYLDATKAAPAREITVNDVASVNPEYEAWSRQDQLIFSALIGTLSLTVQPTVSRAATSADVWATLAGTYAKPSRGHIKQLQHQIKQWKKDTRTIDEYVQGFINRFDQLALIGKIIDHEDQVDYILGGLPEDYKPIVDQMEGRDTPPNGCLTNSCDEDGCFIQMALNSV | soluble
MTEQTILMGNLNEVAKKAAQWLINRKPIKSIIDWGISFSLWPPHFTTSCCGTEFGAFAAARFDAERYGMLPFSSARQSNILILEGTLSRKMGRAARIVYDQMPEPKYVIALGACILEGGIFWNSYNTVLPSDIGIPVDLYVPGCPIRPEAVARAVLMLQKKIRTQGALKT | not soluble
MTKFDLNDSSVVVIVGSGAGGGTLGNELAQKGVKVVILEAGPRIENQDFINDEWESFSQLAWTDARTTSGTWRVAKDFSGLPAWIVKAVGGSTVHWAGASLRFDEHEFRVKSAYGNIPGANLLDWPVTLAEMEPWYAKAENKMGVTRTNGIPGLPGNNNFKVLEAGAKKLGYKTVHTGNMAINSQPRDGRGSCQQIGFCFQGCKSGAKWSTLYTEIPKGEATGNLEVRPSSMAVKIEHDAGGKVTGVVYADEAGAMQRQKARIVAVAGNSIESPRLLLNSASTMFPDGLANSSGQVGRNYMRHMTGSVYAVFEKSVHMYRGTTMAGIIRDEAANNPKRGFVGGYEMETLSIGLPFMAAFLNPGAWGRPFTSALDGYPRMAGMWLVGEDMPQETNRITLDPVVKDKFGQPVASVHFDDHPNDIAMRAHAYKQGAAVYDAVGATVTYPTPPYPSTHNLGTNRMSEKPRDGVVNKFGQSHDVKNLFVSDGSQFTSGAACNPTLTIVALAIRQADYIAGAMQKKEILEHHHHHH | not soluble
SMFIKKIKAKANNNEINVIIEIPMNSGPIKYEFDKESGALFVDRFMQTTMSYPCNYGFIPDTLSNDGDPVDVLVVAHHPVVPGSVIKCRAIGVLMMEDESGLDEKIIAVPTSKLDITFDHIKELDDLCEMLKKRIVHFFEHYKDLEKGKWVKVTGWGDKVKAETLIKEGIDRN | soluble
MTLMKSNLIAAAEIDRLDTWAKYTAPMCGSCMSSCCTLPVEVKIKDLIRIGIVDEFERGEPAKNIAKRLQKEGIVERYNQKSEIFTLQRMSNNDCLYLDRKSRLCTIYDKRPDTCRNHPKIGPRPGYCAYKPKPQVRPTNTSSRTLERFLEHHHHHH | not soluble
MGSDKIHHHHHHSTVAIALDCKGLGSPIPGTAPLCKDLTLMATGNKPSAAFVKNTRAAYGSVLQGYHNQVKPHVAPVQAAVSKKWKQFAKSDVGGKVEKIAMNIHAWIVDKWVKIQRFVQQTWNNVAAWWKKNGQKQFGPALEGFVLGVKMVFQVVADALRSVGALLVHFFARAKTFFVAFADGGFNAAMNTLNH | not soluble
